Source: patent publication US20150011730A1

Experiments:
[1] = target: CDK2/cyclin A (as used in the binding assay) (UniProt P24941)
[2] = target: CDK4/cyclin D1 (as used in the binding assay) (UniProt P11802)
CDK4/cyclin D1 (as used in the binding assay), sequence (P11802 whole entry, chain 1 of 2): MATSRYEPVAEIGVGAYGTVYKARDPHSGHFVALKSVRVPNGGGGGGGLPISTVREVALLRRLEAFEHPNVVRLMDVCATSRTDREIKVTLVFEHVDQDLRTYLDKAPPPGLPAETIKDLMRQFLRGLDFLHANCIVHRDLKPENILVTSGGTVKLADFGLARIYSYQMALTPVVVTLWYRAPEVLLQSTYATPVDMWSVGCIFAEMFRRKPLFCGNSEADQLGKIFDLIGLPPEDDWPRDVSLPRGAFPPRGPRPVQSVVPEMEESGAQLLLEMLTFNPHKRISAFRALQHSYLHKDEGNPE
CDK4/cyclin D1 (as used in the binding assay), sequence (P24385 whole entry, chain 2 of 2, further chain): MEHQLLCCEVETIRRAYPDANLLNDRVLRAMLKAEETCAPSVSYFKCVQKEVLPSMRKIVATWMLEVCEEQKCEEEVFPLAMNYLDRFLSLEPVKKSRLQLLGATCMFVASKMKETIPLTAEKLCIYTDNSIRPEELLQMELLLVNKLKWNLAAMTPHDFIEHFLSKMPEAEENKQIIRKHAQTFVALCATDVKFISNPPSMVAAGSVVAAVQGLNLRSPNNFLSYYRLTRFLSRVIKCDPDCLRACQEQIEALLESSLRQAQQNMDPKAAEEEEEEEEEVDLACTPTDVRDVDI

IC50 [1] [µM]	IC50 [2] [µM]	Substance
0.505	61.2	R{bLeu}NMeF (peptide)
0.405	89.7	R{bLeu}NMeF-NH2 (peptide)
